2 substances from US20140287434 can be followed below.

Series [1] has as its system Lck peptide substrate (YIYGSFK) attached to the carboxy-terminus of the Itk SH2 domain.

Chain of FLAG-tagged Btk full-length enzyme (Q06187 whole entry): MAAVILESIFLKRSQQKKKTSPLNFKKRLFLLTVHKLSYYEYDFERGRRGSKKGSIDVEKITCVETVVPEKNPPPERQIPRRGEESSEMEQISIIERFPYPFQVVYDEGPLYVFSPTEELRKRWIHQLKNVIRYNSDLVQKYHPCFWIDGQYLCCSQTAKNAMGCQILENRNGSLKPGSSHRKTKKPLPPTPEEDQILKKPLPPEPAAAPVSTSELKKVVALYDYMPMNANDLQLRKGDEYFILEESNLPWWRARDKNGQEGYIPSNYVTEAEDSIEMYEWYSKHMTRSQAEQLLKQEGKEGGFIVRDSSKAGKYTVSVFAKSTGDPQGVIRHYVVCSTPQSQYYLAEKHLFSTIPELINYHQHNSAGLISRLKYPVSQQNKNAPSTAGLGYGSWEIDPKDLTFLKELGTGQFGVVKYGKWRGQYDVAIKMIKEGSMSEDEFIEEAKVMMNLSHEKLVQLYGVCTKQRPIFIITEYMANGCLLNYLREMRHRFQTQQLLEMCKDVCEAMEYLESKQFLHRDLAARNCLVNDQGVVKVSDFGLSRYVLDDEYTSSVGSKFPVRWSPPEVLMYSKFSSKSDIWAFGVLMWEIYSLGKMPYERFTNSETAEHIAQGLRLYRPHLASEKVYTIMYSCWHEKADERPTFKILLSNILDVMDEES

With His-tagged wild type Lck kinase domain, in series [1], the “phosphorylation by Lck kinase domain (32P, scintillation counting) against the free peptide YIYGSFK” value was “most efficiently phosphorylated when attached to the carboxy-terminus of the SH2 domain and this tethered substrate is a better substrate by an order of magnitude”. As for FLAG-tagged Btk full-length enzyme, the “phosphorylation on Y223 in an in vitro kinase assay” value with Btk SH3 was “are not phosphorylated by the Tec and Btk kinases”; in the series with Btk SH3-SH2 (Btk 32) it was “only substrates that contain both the site of phosphorylation (Y180 for Itk, Y187 for Tec, Y223 for Btk, and Y783 for PLCγ1) and the adjacent SH2 domain are phosphorylated by the Tec kinases”.
